Reference: PMC7124660

Assays:
[1] = molecular target: hemagglutinin of avian influenza virus H1N1 (avian influenza virus H1N1); assay: ELISA
[2] = molecular target: hemagglutinin of avian influenza virus H5N1 (avian influenza virus H5N1); assay: ELISA
Chain of hemagglutinin of avian influenza virus H5N1 (avian influenza virus H5N1) (Q9Q0U6 17-568): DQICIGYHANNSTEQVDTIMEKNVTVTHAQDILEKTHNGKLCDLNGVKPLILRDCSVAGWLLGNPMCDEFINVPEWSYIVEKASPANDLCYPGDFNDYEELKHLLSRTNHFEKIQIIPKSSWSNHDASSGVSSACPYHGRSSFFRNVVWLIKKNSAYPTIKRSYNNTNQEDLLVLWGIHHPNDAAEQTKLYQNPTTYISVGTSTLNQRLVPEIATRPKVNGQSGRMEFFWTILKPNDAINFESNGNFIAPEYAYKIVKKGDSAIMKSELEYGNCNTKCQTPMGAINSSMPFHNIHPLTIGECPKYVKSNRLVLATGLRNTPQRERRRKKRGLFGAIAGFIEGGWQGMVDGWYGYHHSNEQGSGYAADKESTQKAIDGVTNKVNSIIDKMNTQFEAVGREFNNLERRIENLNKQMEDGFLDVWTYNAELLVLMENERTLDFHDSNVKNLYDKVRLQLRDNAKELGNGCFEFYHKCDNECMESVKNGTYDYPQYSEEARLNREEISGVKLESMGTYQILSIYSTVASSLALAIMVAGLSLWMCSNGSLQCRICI

## Desialylated ovomucin (from UniProt Q98UI9;F1NBL0) (complex)
[1]
  percent decrease of binding capacity against natural OVM: 64.2%
[2]
  percent decrease of binding capacity against natural OVM: 71.5%
